Tests used:
Assay in all cases: cell-based or functional assay
[1] = biological target: HIV-1 MGRM-D-001 Env (HIV-1 isolate MGRM-D-001 (clade D))
[2] = biological target: HIV-1 92RW020 Env (HIV-1 isolate 92RW020 (clade A))
[3] = biological target: HIV-1 JRCSF Env (HIV-1 isolate JRCSF (clade B)) (UniProt P20871)
[4] = biological target: HIV-1 APV13 Env (HIV-1 isolate APV13 (clade B))
[5] = biological target: HIV-1 92BR020 envelope glycoprotein (Env) on virus (HIV-1, clade B, isolate 92BR020)
[6] = biological target: HIV-1 93UG077 envelope glycoprotein (Env) on virus (HIV-1, clade A, isolate 93UG077)
[7] = biological target: HIV-1 APV13 envelope glycoprotein (Env) on virus (HIV-1, clade B, isolate APV13)
[8] = biological target: HIV-1 CMU02 envelope glycoprotein (Env) on virus (HIV-1, clade AE, isolate CMU02)
[9] = biological target: HIV-1 APV6 Env (pseudovirus) (HIV-1)
[10] = biological target: HIV-1 MGRM-A-010 Env (pseudovirus) (HIV-1)
[11] = biological target: HIV-1 MGRM-D-001 envelope glycoprotein (Env) (HIV-1)
[12] = biological target: HIV-1 JRCSF envelope glycoprotein (Env) (HIV-1) (UniProt P20871)
[13] = biological target: HIV-1 MGRM-A-010 envelope glycoprotein (Env) (HIV-1)
[14] = biological target: HIV-1 CMU02 envelope glycoprotein (Env) (HIV-1)
[15] = biological target: HIV-1 92BR020 envelope glycoprotein (Env) on pseudovirus (HIV-1)
[16] = biological target: HIV-1 Env of pseudovirus DU422 (HIV-1)
[17] = biological target: HIV-1 Env of pseudovirus ZM214 (HIV-1)
[18] = biological target: HIV-1 Env of pseudovirus Du172 (HIV-1)
[19] = biological target: HIV-1 Env of pseudovirus AC10 (HIV-1)
[20] = biological target: HIV-1 Env of pseudovirus PVO.4 (HIV-1)
[21] = biological target: HIV-1 Env of pseudovirus DU156 (HIV-1)
[22] = biological target: HIV-1 Env of pseudovirus CAP45 (HIV-1)
[23] = biological target: HIV-1 MGRM-D-001 envelope glycoprotein (Env), clade D pseudovirus (HIV-1)
[24] = biological target: HIV-1 MGRM-D-018 envelope glycoprotein (Env), clade D pseudovirus (HIV-1)
[25] = biological target: HIV-1 92TH021 envelope glycoprotein (Env), clade AE pseudovirus (HIV-1)
[26] = biological target: HIV-1 MGRM-AG-005 envelope glycoprotein (Env), clade AG pseudovirus (HIV-1)
[27] = biological target: HIV-1 Env of isolate MGRM-Chronic-B-001 (subtype B), on pseudovirus (HIV-1)
[28] = biological target: HIV-1 Env of isolate 92BR020 (subtype B), on pseudovirus (HIV-1)
[29] = biological target: HIV-1 Env of isolate MGRM-F1-015 (subtype F) (HIV-1)
[30] = biological target: HIV-1 Env of pseudovirus 98CN006 (HIV-1)
[31] = biological target: HIV-1 Env of isolate MGRM-F1-014 (subtype F) (HIV-1)
[32] = biological target: HIV-1 Env of isolate MGRM-F1-008 (subtype F) (HIV-1)
[33] = biological target: HIV-1 Env of isolate 92RW020 (clade A) (HIV-1)

Sequence of 5329_C19 (PGT-136) (antibody) (VH): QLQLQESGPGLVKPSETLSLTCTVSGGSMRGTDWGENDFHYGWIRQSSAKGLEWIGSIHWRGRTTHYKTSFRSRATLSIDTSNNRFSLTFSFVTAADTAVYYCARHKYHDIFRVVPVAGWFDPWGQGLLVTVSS
Sequence of 5329_C19 (PGT-136) (antibody) (VL): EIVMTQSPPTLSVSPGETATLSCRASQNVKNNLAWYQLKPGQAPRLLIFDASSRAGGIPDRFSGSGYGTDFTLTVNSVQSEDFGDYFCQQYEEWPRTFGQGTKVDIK
Sequence of 1443_C16 (PG16) (TCN-116) (antibody) (VH): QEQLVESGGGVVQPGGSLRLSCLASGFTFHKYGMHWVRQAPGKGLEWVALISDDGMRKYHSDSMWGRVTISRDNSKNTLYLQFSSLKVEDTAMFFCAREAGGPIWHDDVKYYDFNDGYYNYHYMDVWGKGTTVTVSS
Sequence of 1443_C16 (PG16) (TCN-116) (antibody) (VL): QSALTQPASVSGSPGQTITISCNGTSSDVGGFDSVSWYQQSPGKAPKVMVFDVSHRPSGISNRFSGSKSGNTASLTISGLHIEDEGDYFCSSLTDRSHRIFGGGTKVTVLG

4838_L06 (PGT-121) (antibody)
Neutralization IC80 [1]: 3.29 µg/mL
Neutralization IC90 [1]: 6.26 µg/mL
Neutralization IC95 [1]: 9.39 µg/mL
Neutralization IC80 [2]: 0.0188 µg/mL
Neutralization IC90 [2]: 0.0361 µg/mL
Neutralization IC95 [2]: 0.0671 µg/mL
Neutralization IC90 [3]: 0.223 µg/mL
Neutralization IC95 [3]: 0.417 µg/mL
Neutralization IC80 [4]: 1.31 µg/mL
Neutralization IC90 [4]: 2.8 µg/mL
Neutralization IC95 [4]: 5.15 µg/mL

4877_D15 (PGT-122) (antibody)
Neutralization IC80 [5]: 0.0929 µg/mL
Neutralization IC90 [5]: 0.168 µg/mL
Neutralization IC95 [5]: 0.289 µg/mL
neutralization IC50 [5]: 0.0337 µg/mL
Neutralization IC80 [6]: 0.931 µg/mL
Neutralization IC90 [6]: 2.1 µg/mL
Neutralization IC95 [6]: 3.88 µg/mL
neutralization IC50 [6]: 0.191 µg/mL
Neutralization IC80 [7]: 4.14 µg/mL
Neutralization IC90 [7]: 8.6 µg/mL
Neutralization IC95 [7]: > 10 µg/mL
neutralization IC50 [7]: 0.992 µg/mL
Neutralization IC80 [8]: > 10 µg/mL
Neutralization IC90 [8]: > 10 µg/mL
Neutralization IC95 [8]: > 10 µg/mL
neutralization IC50 [8]: > 10 µg/mL

5123_A06 (PGT-125) (antibody)
Neutralization by PGT-125, IC50 [9]: 0.0359 µg/mL
Neutralization by PGT-125, IC80 [9]: 0.133 µg/mL
Neutralization by PGT-125, IC90 [9]: 0.288 µg/mL
Neutralization by PGT-125, IC95 [9]: 0.597 µg/mL
Neutralization by PGT-125, IC50 [10]: 0.0055 µg/mL
Neutralization by PGT-125, IC80 [10]: 0.024 µg/mL
Neutralization by PGT-125, IC90 [10]: 0.0575 µg/mL
Neutralization by PGT-125, IC95 [10]: 0.131 µg/mL

5329_C19 (PGT-136) (antibody)
Neutralization IC80 [11]: > 10 µg/mL
Neutralization IC90 [11]: > 10 µg/mL
Neutralization IC95 [11]: > 10 µg/mL
neutralization IC50 [11]: > 10 µg/mL
Neutralization IC80 [12]: > 10 µg/mL
Neutralization IC90 [12]: > 10 µg/mL
Neutralization IC95 [12]: > 10 µg/mL
neutralization IC50 [12]: > 10 µg/mL
Neutralization IC80 [13]: > 10 µg/mL
Neutralization IC90 [13]: > 10 µg/mL
Neutralization IC95 [13]: > 10 µg/mL
neutralization IC50 [13]: > 10 µg/mL
Neutralization IC80 [14]: > 10 µg/mL
Neutralization IC90 [14]: > 10 µg/mL
Neutralization IC95 [14]: > 10 µg/mL
neutralization IC50 [14]: > 10 µg/mL

5343_B08 (PGT-135) (antibody)
Neutralization IC80 [15]: 0.253 µg/mL
Neutralization IC90 [15]: 0.43 µg/mL
Neutralization IC95 [15]: 0.72 µg/mL
neutralization IC50 [15]: 0.104 µg/mL

1443_C16 (PG16) (TCN-116) (antibody)
IC50, pseudovirus neutralization (TZM-bl assay) [16]: 0.59 µg/mL
IC50, pseudovirus neutralization (TZM-bl assay) [17]: > 25 µg/mL
IC50, pseudovirus neutralization (TZM-bl assay) [18]: < 0.01 µg/mL
IC50, pseudovirus neutralization (TZM-bl assay) [19]: < 0.01 µg/mL
IC50, pseudovirus neutralization (TZM-bl assay) [20]: 12.3 µg/mL
IC50, pseudovirus neutralization (TZM-bl assay) [21]: < 0.01 µg/mL
IC50, pseudovirus neutralization (TZM-bl assay) [22]: < 0.01 µg/mL

4858_P08 (PGT-123) (antibody)
IC50, pseudovirus neutralization [23]: 0.215 µg/mL
IC80 (pseudovirus neutralization) [23]: 0.678 µg/mL
IC90 (pseudovirus neutralization) [23]: 1.31 µg/mL
IC95 (pseudovirus neutralization) [23]: 2.33 µg/mL
IC50, pseudovirus neutralization [24]: 0.0047 µg/mL
IC80 (pseudovirus neutralization) [24]: 0.0175 µg/mL
IC90 (pseudovirus neutralization) [24]: 0.0381 µg/mL
IC95 (pseudovirus neutralization) [24]: 0.0791 µg/mL
IC50, pseudovirus neutralization [25]: > 10 µg/mL
IC80 (pseudovirus neutralization) [25]: > 10 µg/mL
IC90 (pseudovirus neutralization) [25]: > 10 µg/mL
IC95 (pseudovirus neutralization) [25]: > 10 µg/mL
IC50, pseudovirus neutralization [26]: 0.104 µg/mL
IC80 (pseudovirus neutralization) [26]: 1.28 µg/mL
IC90 (pseudovirus neutralization) [26]: 6.38 µg/mL
IC95 (pseudovirus neutralization) [26]: > 10 µg/mL

PGV04 (antibody)
IC50, single-round pseudovirus neutralization [27]: 0.048 µg/mL
IC50, single-round pseudovirus neutralization [28]: 0.25 µg/mL
IC50 (µg/mL), pseudovirus neutralization [29]: 0.179 µg/mL
IC50, pseudovirus neutralization [30]: 1.32 µg/mL
IC50 (µg/mL), pseudovirus neutralization [31]: 0.02 µg/mL
IC50 (µg/mL), pseudovirus neutralization [32]: 1.03 µg/mL

1496_C09 (PG9) (TCN-109) (antibody)
Neutralization IC80 [33]: 1.04 µg/mL
Neutralization IC90 [33]: 3.4 µg/mL
neutralization IC50 [33]: 0.161 µg/mL
